In patent publication US20230398116A1, “Agent for reversing resistance to anticancer drugs” (Y'S AC CO., LTD., priority 2020, published 2023):

How the values were obtained:
E0771 cells = assay: MTT assay / cell proliferation (confluence) assay, E0771; type: cell-based, mouse; conditions: E0771, erlotinib 30 μM or 50 μM, 48 hours, MTT, FIG. 10
Method: (§1) Human and mouse breast cancer cells (1×10^4) were cultured in 10% FCS containing RPMI1640 medium on a 96-well flat bottom plate (Corning, Tewksbury, MA) at 37° C. for 24 hours, and then stimulated with IL-26 for 48 hours in the presence or absence of EGFR-TKI (gefitinib or erlotinib) at various concentrations, a signal inhibitor, and a neutralizing antibody. HUVECs were seeded in a 96-well flat bottom plate at 5×10^3 cells/well in a 2% FBS-containing EGM medium in which growth factors were reduced by half, and cultured at 37° C. for 12 hours. Thereafter, the medium was aspirated, and a recombinant human IL-26 dimer was adjusted to a final concentration of 10 ng/mL in a 2% FBS-containing EGM medium containing no growth factors, and added to the cells. The stimulation was started in the presence or absence of control human IgG and anti-human IL-26 antibodies, and the cells were cultured for 48 hours. Thereafter, a concentration of 20 μl or 1/10 of a 5 mg/ml MTT solution (Tetrazolium monosodium salt, WST-8) was added to each well, and the plate was allowed to stand for 1 hour. The absorbance at 450 nm/595 nm was measured using Microplate Reader (Bio-Rad, Hercules, CA) and data was analyzed with Microplate Manager 6 software (Bio-Rad).
(§2) Human and mouse breast cancer cells (1×10^4) were cultured in RPMI1640 medium containing 10% FCS for 24 hours at 37° C. on a 96-well flat bottom plate (Corning), and then stimulated with IL-26 (30 ng/ml) in the presence or absence of various concentrations of gefitinib and a neutralizing antibody. Cell proliferation was measured as cell confluence using IncuCyte ZOOM (Essen Bioscience, Ann Arbor, MI).

HCC70 cells = assay: MTT assay / cell proliferation (confluence) assay, HCC70; type: cell-based, human; conditions: HCC70, erlotinib 30 μM or 50 μM, 48 hours, MTT, FIG. 10
Method: as §1, §2

MDA-MB468 cells = assay: MTT assay / cell proliferation (confluence) assay, MDA-MB468; type: cell-based, human; conditions: MDA-MB-468, erlotinib 30 μM or 50 μM, 48 hours, MTT, FIG. 10
Method: as §1, §2

[1] = target: T1, recombinant human IL-26/AK155 monomer, Cat #1375-IL/CF, R&D Systems (human, UniProt Q9NPH9 22-171); assay: ELISA, human IL-26 monomer coated at 0.5 µg/ml, antibody diluted 2-fold from 5 µg/ml, HRP anti-human kappa detection
T1 construct: also called recombinant human IL-26 monomer
T1 sequence (looked up): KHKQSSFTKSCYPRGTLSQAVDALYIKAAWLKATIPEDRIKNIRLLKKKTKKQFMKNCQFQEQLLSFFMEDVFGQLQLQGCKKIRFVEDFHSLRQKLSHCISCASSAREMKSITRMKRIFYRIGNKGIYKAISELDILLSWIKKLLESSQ
Method: (§3) The antigen binding of purified Ch69-10-IgG1, Hu69-10A-IgG1, and Hu69-10B-IgG1 was analyzed by ELISA. ELISA plates were coated overnight at 4° C. with the addition of 0.5 μg/ml human IL-26 (recombinant human IL-26/AK155 monomer, Cat #1375-IL/CF, R&D Systems, Minneapolis, MN) at 100 μl/well in 0.2 M sodium carbonate buffer (pH 9.4). Wells were washed with the wash buffer and blocked with the ELISA buffer. Subsequently, 100 μl/well of test antibody (mouse 69-10, Ch69-10-IgG1, Hu69-10A-IgG1, or Hu69-10B-IgG1) serially diluted 2-fold in RPMI medium starting at 5 μg/ml was added to measure a binding with IL-26. After incubation at room temperature for 1 hour and washing the plates with a wash buffer, a 1/2,000-diluted HRP-conjugated goat anti-human kappa chain polyclonal antibody (Bethyl Laboratories) (for Ch69-10-IgG1, Hu69-10A-IgG1 and Hu69-10B-IgG1) or a 1/2,000-diluted HRP-labeled goat anti-mouse kappa chain polyclonal antibody (Bethyl Laboratories) (for mouse 69-10) in ELISA buffer was added at 100 μl/well to detect bound antibodies. After incubation at room temperature for 30 min and washing with the wash buffer, 100 μl/well of ABTS substrate (Sigma Aldrich) was added to start color development and 100 μl/well of 2% oxalic acid was added to stop the color development. The absorbance was measured at 405 nm.

[2] = tested on: phosphorylation of AKT, JNK and EphA3 in HCC70 cells; assay: Western blotting of phosphorylation in HCC70 cells; type: cell-based, human; conditions: gefitinib 40 μM
Method: To analyze the phosphorylation of AKT, ERK, p38, JNK, STAT3, and EphA3, E0771 cells and HCC70 cells in 100 mm dishes were stimulated with IL-26 ([…]) and an anti-EphA3 polyclonal antibody (pAb) (10 μg/ml) for a specified period of time. After stimulation, the cells were lysed with a 2% protease inhibitor mixture (Sigma-Aldrich) and/or RIPA buffer added with 1×PhosSTOP (Roche Diagnostics, Tokyo, Japan), and a lysate was separated in a reduced state by SDS-PAGE (15 μg/lane). Immunoblots were performed using an anti-phosphorylated AKT antibody, an anti-phosphorylated ERK antibody, an anti-phosphorylated p38 antibody, an anti-phosphorylated JNK antibody, an anti-phosphorylated STAT3 antibody, and an anti-phosphorylated EphA3 antibody that recognize both human and mouse antigens. For reprobing, the membrane was immersed in a stripping buffer. After the stripping procedure, the membranes were re-probed with anti-pan-AKT, anti-pan-ERK, anti-pan-p38, anti-pan-JNK, anti-pan-STAT3, and anti-pan-EphA3 antibodies recognizing both human and mouse antigens. Images were taken using a C-Digit Blot scanner (MS Techno Systems, Inc., Japan).

EphA3/IL-26 interaction = target: T2, EphA3/IL-26 interaction (Homo sapiens, UniProt Q9NPH9); assay: Immunofluorescence of rhIL-26-Alexa 488 and cell surface EphA3 on E0771 cells; type: cell-based, mouse; conditions: E0771, antibodies 10 μg/ml, FIGS. 19 and 20
T2 construct: purchased R&D Systems; host or cells: IL-26 was purchased; EphA3 is endogenous on E0771 cells
T2 sequence (Q9NPH9 22-171): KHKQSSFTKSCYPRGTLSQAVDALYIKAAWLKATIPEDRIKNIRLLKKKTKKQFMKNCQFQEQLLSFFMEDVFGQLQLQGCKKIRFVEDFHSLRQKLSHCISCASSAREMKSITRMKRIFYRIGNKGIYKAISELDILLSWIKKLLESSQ
Method: E0771 and HCC70 cells (1×10^5) were cultured for 24 hours in RPMI1640 medium with 10% FCS on Lab-Tek chamber slides (Thermo Fisher Scientific). The cultured cells were stimulated with Alexa Fluor 488 labeled IL-26 (30 ng/ml) in the presence or absence of recombinant human and mouse EphA3-Ig for 1 hour. HCC70 cells were stimulated with IL-26 (30 ng/ml) in the presence or absence of gefitinib (40 μM), a signal inhibitor, and a neutralizing antibody for 24 hours. Subcutaneous tumor samples obtained from mice were fixed in 4% paraformaldehyde (Thermo Fisher Scientific) and embedded in OCT compound (Tissue-Tek (registered trademark), Sakura Finetek, Japan). Cells and slides were immunostained with each antibody and observed using a Zeiss inverted microscope and Axiovision 2.0 program (Carl Zeiss, Germany). The fluorescence intensity was quantified with Image-J software (NIH). The images were captured using a 100×400× objective.

IL-26 = target: T3, IL-26 (Homo sapiens, UniProt Q9NPH9); assay: ELISA of antigen binding to human IL-26; parameters: purchased R&D Systems 1375-IL/CF; conditions: plates coated with 0.5 μg/ml human IL-26 monomer; calculated using GraphPadPrism
T3 sequence (Q9NPH9 22-171): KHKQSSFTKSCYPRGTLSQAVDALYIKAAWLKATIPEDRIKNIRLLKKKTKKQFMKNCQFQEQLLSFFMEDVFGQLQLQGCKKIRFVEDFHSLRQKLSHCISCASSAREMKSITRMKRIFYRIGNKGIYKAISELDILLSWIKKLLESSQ
Method: as §3

[3] = HCC70, Ephrin A5 200 ng/ml, FIG. 26 left

C#Cc1cccc(Nc2ncnc3cc(OCCOC)c(OCCOC)cc23)c1 [erlotinib, Erlotinib, reference compound]
cell proliferation under erlotinib (E0771 cells): inhibitory effect of erlotinib on cell proliferation
cell proliferation under erlotinib (HCC70 cells): inhibitory effect of erlotinib on cell proliferation
cell proliferation under erlotinib (MDA-MB468 cells): inhibitory effect of erlotinib on cell proliferation

B1: Hu69-10A-IgG1/kappa antibody (Hu69-10A-IgG1) (antibody, V domains shown)
VH: QVTLKESGPALVKPTQTLTLTCTFSGFSLSTSGMGVGWIRQPPGKALEWLAHIWWDDDKYYNPSLKSQLTISKDTSKNQVVLTMTNMDPVDTATYYCVRGGITATHYYAMDYWGQGTTVTVSS
VL: DIQMTQSPSSLSASVGDRVTITCLASQTIGTWLSWYQQKPGKAPKLLIYAATSLADGVPSRFSGSGSGTKFTFTISSLQPEDIATYYCQQLYSSPWTFGGGTKVEIK
notes: also called h69-10A; humanized anti-IL-26 antibody Hu69-10A
EC50 [1]: 0.304 µg/mL

B2: Hu69-10B IgG1/kappa antibody (Hu69-10B-IgG1) (antibody, V domains shown)
VH: QVTLKESGPALVKPTQTLTLTCTFSGFSLSTSGMGVGWIRQPPGKALEWLAHIWWDDDKYYNPSLKSQLTISKDTSKNQVVLTMTNMDPVDTATYYCVRGGITATHYYAMDYWGQGTTVTVSS
VL: DIQMTQSPSSLSASVGDRVTITCLASQTIGTWLSWYQQKPGKAPKLLIYAATSLADGVPSRFSGSGSGTDFTFTISSLQPEDIATYYCQQLYSSPWTFGGGTKVEIK
notes: also called h69-10B; humanized anti-IL-26 antibody Hu69-10B
EC50 [1]: 0.396 µg/mL

B3: Ephrin A5: known ligand of EphA3 (protein, UniProt P52803 21-203, looked up)
Ephrin-A5: QDPGSKAVADRYAVYWNSSNPRFQRGDYHIDVCINDYLDVFCPHYEDSVPEDKTERYVLYMVNFDGYSACDHTSKGFKRWECNRPHSPNGPLKFSEKFQLFTPFSLGFEFRPGREYFYISSAIPDNGRRSCLKLKVFVRPTNSCMKTIGVHDRVFDVNDKVENSLEPADDTVHESAEPSRGEN
phosphorylation of AKT [2, 3]: slightly enhanced
phosphorylation of JNK and EphA3 [2, 3]: little effect
dephosphorylation of EphA3, activation of AKT and JNK phosphorylation ([2]; HCC70, IL-26 30 ng/ml or Ephrin A5 200 ng/ml, FIG. 26): such changes were not observed

B4: mouse soluble EphA3: recombinant mouse EphA3 Fc chimeric protein purchased from R&D Systems (protein)
chain: ELSPQPSNEVNLLDSKTIQGELGWISYPSHGWEEISGVDEHYTPIRTYQVCNVMDHSQNNWLRTNWVPRNSAQKIYVELKFTLRDCNSIPLVLGTCKETFNLYYMESDDHGVKFREHQFTKIDTIAADESFTQMDLGDRILKLNTEIREVGPVNKKGFYLAFQDVGACVALVSVRVYFKKCPFTVKNLAMFPDTVPMDSQSLVEVRGSCVNNSKEEDPPRMYCSTEGEWLVPIGKCTCNAGYEERGFICQACRPGFYKASDGAAKCAKCPPHSSTQEDGSMNCRCENNYFRAEKDPPSMACARPPSAPRNVISNINETSVILDWSWPLDTGGRKDITFNIICKKCGWNVRQCEPCSPNVRFLPRQLGLTNTTVTVTDLLAHTNYTFEIDAVNGVSELSSPPRQYAAVSITTNQAAPSPVMTIKKDRTSRNSISLSWQEPEHPNGIILDYEVKYYQKQEQETSYTILRARGTNVTISSLKPDTTYVFQIRARTAAGYGTNSRKFEFETSPDSFSISGENSH
modifications: left off: a dimerising Fc or GST
notes: recombinant mouse EphA3 Fc chimeric protein purchased from R&D Systems
inhibition of colocalization of IL-26 with EphA3 (EphA3/IL-26 interaction) (EphA3/IL-26 interaction): inhibited EphA3/IL-26 interaction

B5: chimeric 69-10 IgG1/kappa antibody (Ch69-10-IgG1) (antibody, V domains shown)
VH: QVTLKESGPGILKPSQTLSLTCSFSGFSLSTSGMGVGWIRQPSGKGLEWLAHIWWDDDKYYNPSLKSQLTISKDTSRNQVFLKITSVDTADTATYYCVRGGITATHYYAMDYWGQGTSVTVSS
VL: DIQMTQSPASQSASLGESVTISCLASQTIGTWLSWYQQKPGKSPQLLIYAATSLADGVPSRFSGSGSGTKFSFKISSLQAEDFVSYYCQQLYSSPWTFGGGTKLEIK
notes: also called clone 1H8
EC50 [1]: 0.299 µg/mL

B6: Ch69-10-IgG1: chimeric 69-10 IgG1/kappa antibody with mouse 69-10 VH and VL and human constant regions (antibody, V domains shown)
VH: QVTLKESGPGILKPSQTLSLTCSFSGFSLSTSGMGVGWIRQPSGKGLEWLAHIWWDDDKYYNPSLKSQLTISKDTSRNQVFLKITSVDTADTATYYCVRGGITATHYYAMDYWGQGTSVTVSS
VL: DIQMTQSPASQSASLGESVTISCLASQTIGTWLSWYQQKPGKSPQLLIYAATSLADGVPSRFSGSGSGTKFSFKISSLQAEDFVSYYCQQLYSSPWTFGGGTKLEIK
EC50 values (binding to human IL-26, ELISA) (IL-26): 0.299 µg/mL
